{"source": "paper PMC12787518", "origin": "cited, not measured here", "key": {"His31": {"biological_target": "His31 (UniProt position 31, TIGIGHLLTKS)"}, "Asp70": {"biological_target": "Asp70 (UniProt position 70, KLFNQDVDAAV)", "conditions": "folded (native, Asp70-His31 salt bridge formed)"}}, "note": "Like-named read-outs stand apart in the source and are kept apart here."}
{"substance": "T4 lysozyme (Enterobacteria phage T4 (Tequatrovirus T4))", "values": [{"measurement": "pKa", "setting": "His31; folded (native, Asp70-His31 salt bridge formed)", "value": 9.1}, {"measurement": "pKa", "setting": "His31; unfolded (before folding, no salt bridge), inferred from the wording 'during ... folding'", "value": 6.8}, {"measurement": "pKa", "setting": "Asp70", "value": 0.5}]}
